The results in this text go back to patent US20220170056A1, “COMPOSITIONS AND METHODS FOR BIOSYNTHESIS OF […] CANNABINOIDS IN A HE[…]” (INMED PHARMACEUTICALS INC., priority 2019, published 2022).

The subject of assay [1] is MEP pathway flux. The experiment in a line: Lycopene production (MEP pathway flux) in recombinant E. coli. Format: cell-based, E. coli BL21(DE3). The note with it: for terpene titer (lycopene and isoprene), in words: IspDF2 and IspDF3 versions of the Dxs-IspDF-Idi chassis, FIG. 18. Here is the method: Both isoprene and lycopene starter cultures were cultivated overnight at 30° C. in LB media (Sigma-Aldrich) containing appropriate antibiotic/s. Isoprene starter cultures were then diluted to 15 mL with the medium to OD600 of 0.2, induced with arabinose and/or IPTG; and allowed to grow for 24 h at 30° C. in 25 mL sealed glass tube. Lycopene starter cultures were diluted to 5 mL with the medium to OD600 of 0.2, induced with IPTG, and allowed to grow for 24 h at 30° C. in culture tubes in the dark.
Lycopene is an intracellular product. 2 mL of cell culture was centrifuged at 8000 rpm for 5 min and lycopene was extracted by extraction from the pellet with 1 mL acetone. Extraction was performed at 55° C. with intermittent vortexing for 20 min in reduced light condition. The acetone suspension was centrifuged and filtered before analysis. Samples were analyzed on the PerkinElmer Flexar system equipped with Zorbax C-18 column (4.6×250 mm, Agilent Technologies) maintained at 30° C. Samples were run with mobile phase consisting of 66% (v/v) methanol, 30% (v/v) tetrahydrofuran and 4% (v/v) water at 1 mL/min flow rate. Lycopene detection was done by monitoring absorbance at 474 nm wavelength using a photodiode detector.

Assay [2] relates to E. coli. Nature of the assay: CBGA production in E. coli expressing NphB variant and transporter, fed OA. The class given is cell-based. The note with it: cells expressing NphB variant; compared to control cell not expressing a heterologous transporter (FIG. 9). Here is the method:
(§1) The following experimental host cells were tested: (1) E. coli transformed with plasmids encoding arabinose inducible transporters pcaK or pp3656; and (2)) E. coli transformed with plasmids encoding arabinose inducible transporters pcaK or pp3656 and B5 plasmid (encoding ispDF1 enzyme, GPPS, and an optimized variant NphB (see, Valliere et al.).
(§2) Seed cultures of (1) were inoculated from glycerol stock into 5 mL LB with 34 μg/mL chloramphenicol, incubate at 30° C. overnight. Seed cultures of (2) were inoculated from glycerol stock into 5 mL LB with 34 μg/mL chloramphenicol and 50 μg/mL kanamycin, incubate at 30° C. overnight.
Induction cultures of (2) were inoculated from seed culture into total culture volume 5 mL TB media with 0.5 mM OA, 5 mM MgCl2, and cultured at 30° C. until OD600 of 0.8. Cultures were induced by adding arabinose to a final concentration of 5 mM arabinose and IPTG to a final concentration of 100 μM. During induction, cultures were incubated at 30° C. Induction culture samples were collected at 24 h and 48 hr time points after the start of induction.
(§3) Cultures first centrifuged at 3000 rpm for 10 m to separate pellet and culture media supernatant fractions. Pellets also washed with PBS twice. Cell pellets lysed with B-PER Complete Reagent following manufacturer's protocol. […] Samples of the cell lysates were analyzed by SDS-PAGE analysis. […]

The test system of assay [3] is E. coli. The experiment in a line: Olivetolate (OA) uptake into E. coli expressing heterologous transporter. The note with it: 24 to 48 hours after induction; compared to BL21 control without additional transporters (FIG. 8). The class given is cell-based. As to the method: as §1, §2
Induction cultures of (1) were inoculated from seed culture into total culture volume 5 mL TB media with 0.1 mM OA and cultured at 30° C. until OD600 of 0.8. Cultures were induced by adding arabinose and magnesium to a final concentration of 5 mM arabinose and 5 mM MgCl2. During induction, cultures were incubated at 30° C. Induction culture samples were collected at 24 h and 48 hr time points after the start of induction.
as §3

B1: IspDF3: novel bifunctional IspD-IspF fusion from soil metagenome fosmid NR0037_N05, 40.2 kDa (protein)
chain: MVHVSAIIAAGGRGERFGGPQPKQLLLLGGVPILKRTVDAFLRGYPFIEVIVALPAEFVANPPDYLDDVIVVEGGARRQDSVANAFRAVAPSAQVVVIHDAARPLVTPSLIERTVDAAVKHGAAIAALRATDTVKRGDASRVIRGTLPRDEIFLAQTPQAFRAGVLRDALALAASAADATDEAMLAEQAGHHVRLVDGDPRNLKITTPEDLEMRIGNGYDLHRLVTGRPLVLGGVTIPFEKGLQGHSDADAVCHAITDAILGAASAGDIGRHFPDTDPAWKDAKSIVLLQQAAQIVSRAGYAIANLDVVVIAQQPKLVPHIDAIRHSVAHALGIDVQQVSVKGKTNEGVDSMGAGESIAVHAVALLQHS
For B1, the “terpene titer (lycopene and isoprene), in words” value in assay [1] is given as “lowered the titer”.

B2: IspDF2: novel bifunctional IspD-IspF fusion from soil metagenome fosmid NR0032_O07, 42.1 kDa (protein)
chain: MQVTAIIAAGGRGRRFGGGVPKQLVGVGGRPILERTVAAFLGHPAIHEVVVALPAELMADPPAYLRAAPKPIRLVAGGVQRQDSVRQAFQAANEQSDVIVIHDAARPFASADLISRTIAAAAEGGAALAAVPARDTVKRGAFAAGRTGPAGRQAVEGAPLLVVAETLPRDSIYLAQTPQAFRRDVLRDALALGEAGSEATDEATLAERAGHIVRLVEGEPANIKITTPDDLLVAFRIGAGYDLHRLVEGRPLVLGGVTIPFERGLLGHSDADAICHAVTDAVLGAAAAGDIGRHFPDSDPKWRDWSSIDLLRRASAIVKGRGYAIANVDAVVIAERPKLAPFLDEMRANVAGAIGIAVDAVGIKGKTNEGLGELGRGEAIAVHAVALLHL
For B2, the “terpene titer (lycopene and isoprene), in words” value in assay [1] was “lowered the titer”.

B3: pcaK: MFS aromatic acid antiporter amplified from Pseudomonas putida KT2440 (protein, UniProt Q51955 1-448, looked up)
4-hydroxybenzoate transporter …: MNQAQNSVGKSLDVQSFINQQPLSRYQWRVVLLCFLIVFLDGLDTAAMGFIAPALSQEWGIDRASLGPVMSAALIGMVFGALGSGPLADRFGRKGVLVGAVLVFGGFSLASAYATNVDQLLVLRFLTGLGLGAGMPNATTLLSEYTPERLKSLLVTSMFCGFNLGMAGGGFISAKMIPAYGWHSLLVIGGVLPLLLALVLMVWLPESARFLVVRNRGTDKIRKTLSPIAPQVVAEAGSFSVPEQKAVAARSVFAVIFSGTYGLGTMLLWLTYFMGLVIVYLLTSWLPTLMRDSGASMEQAAFIGALFQFGGVLSAVGVGWAMDRYNPHKVIGIFYLLAGVFAYAVGQSLGNITVLATLVLIAGMCVNGAQSAMPSLAARFYPTQGRATGVSWMLGIGRFGAILGAWSGATLLGLGWNFEQVLTALLVPAALATVGVIVKGLVSHADAT
With B3, the “production of CBGA” value in assay [2] was “increased production of CBGA”. Besides, the “olivetolate uptake inside cells” value in assay [3] is “increased olivetolate uptake”.

B4: IspEF fusion: non-natural fusion, E. coli IspE linked by flexible linker (FL) to E. coli IspF (protein)
chain: MRTQWPSPAKLNLFLYITGQRADGYHTLQTLFQFLDYGDTISIELRDDGDIRLLTPVEGVEHEDNLIVRAARLLMKTAADSGRLPTGSGANISIDKRLPMGGGLGGGSSNAATVLVALNHLWQCGLSMDELAEMGLTLGADVPVFVRGHAAFAEGVGEILTPVDPPEKWYLVAHPGVSIPTPVIFKDPELPRNTPKRSIETLLKCEFSNDCEVIARKRFREVDAVLSWLLEYAPSRLTGTGACVFAEFDTESEARQVLEQAPEWLNGFVAKGANLSPLHRAMLSLGGGGSAAAMRIGHGFDVHAFGGEGPIIIGGVRIPYEKGLLAHSDGDVALHALTDALLGAAALGDIGKLFPDTDPAFKGADSRELLREAWRRIQAKGYTLGNVDVTIIAQAPKMLPHIPQMRVFIAEDLGCHMDDVNVKATTTEKLGFTGRGEGIACEAVALLIKATK
With B4, in assay [1], the “decrease in lycopene production than SALyc-SDFEI” value was “at least 65%” and the “decrease in normalized lycopene titers than SALyc-SDFEI” value amounted to 85%. Besides, the “lycopene production / titers, in words” value in assay [1] (comparison as stated in the sentence (FIGS. 21, 23, 25)) is on record as “lowered the lycopene production substantially”.
